Experimental data as given in the supplement of paper PMC7877785.
± gives the uncertainty stated by the source.

Test: self-splicing fitness, log relative to wild type (ln ratio); higher = more splicing; Tetrahymena group I intron in knt gene, E. coli kanamycin selection, DiMSum; sequences stand for … in CUCUCU…GGAGGGAAAAGUUAUCAGGCAUGCACCUGGUAGCUAGUCUUUAAACCAAUAGAUUGCAUCGGUUUAAAAGGCAAGACCGUCAAAUUGCGGGAAAGGGGUCAACAGCCGUUCAGUACCAAGUCUCAGGGGAAACUUUGAGAUGGCCUUGCAAAGGGUAUGGUAAUAAGCUGACGGACAUGGUCCUAACCACGCAGCCAAGUCCUAAGUCAACAGAUCUUCUGUUGAUAUGGAUGCAGUUCACAGACUAAAUGUCGGUCGGGGAAGAUGUAUUCUUCUCAUAAGAUAUAGUCGGACCUCUCCUUAAUGGGAGCUAGCGGAUGAAGUGAUGCAACACUGGAGCCGCUGGGAACUAAUUUGUAUGCGAAAGUAUAUUGAUUAGUUUUGGAGUACUCGUGGUCG
Summary of the method: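 Colonies from six replicate transformations of E. coli BL21(DE3) were pooled and amplicon-sequenced on an Illumina HiSeq 2500. The library placed an intron with all eight P1ex-region nucleotides randomised inside the knt kanamycin-resistance gene on pET-22b(+), and cells grew overnight at 37°C or 30°C on LB agar with or without 25 μg/mL kanamycin (plus 100 μg/mL carbenicillin, 50 μM IPTG, 0.2% rhamnose). Fitness is the DiMSum error-weighted combination of wild-type-normalised replicate fold changes, kanamycin versus none.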

| Sequence | self-splicing fitness (ln) (30 °C) | self-splicing fitness (ln) (37 °C) |
| --- | --- | --- |
| GUAUAGCAAUAUUACGACAC | 0.143 ± 0.091 | 0.241 ± 0.12 |
| CUAUAGCAAUAUUACGGAAA | -2.82 ± 0.2 | -2.06 ± 0.42 |
| GCGAAGCAAUAUUACGAUAA | -2.27 ± 0.15 | -1.46 ± 0.2 |
| GCACAGCAAUAUUACGUCGA | -0.827 ± 0.05 | -0.258 ± 0.062 |
| AGGUAGCAAUAUUACGCCGG | -1.09 ± 0.017 | -0.556 ± 0.034 |
| CACAAGCAAUAUUACGGUAG | -0.991 ± 0.043 | -0.207 ± 0.059 |
| AGCCAGCAAUAUUACGGGUC | -3.28 ± 0.18 | -2.13 ± 0.2 |
| UAUUAGCAAUAUUACGUCUA | -0.265 ± 0.091 | 0.324 ± 0.12 |
| UGGUAGCAAUAUUACGCAUU | -1.88 ± 0.15 | -1.66 ± 0.19 |
| UUCGAGCAAUAUUACGGAUG | -3.22 ± 0.38 | -2.86 ± 0.32 |
| CCGUAGCAAUAUUACGGUAC | -3.37 ± 0.3 | – |
| ACCCAGCAAUAUUACGAUUG | -4.36 ± 0.19 | -2.78 ± 0.16 |
| ACUCAGCAAUAUUACGCCAG | -0.898 ± 0.087 | -1.27 ± 0.15 |
| CGGGAGCAAUAUUACGAGUU | -3.12 ± 0.27 | -2.59 ± 0.36 |
| AGAUAGCAAUAUUACGCUGC | – | -1.26 ± 0.34 |
| AUGGAGCAAUAUUACGUCGU | -2.38 ± 0.15 | -1.45 ± 0.18 |
| AUUUAGCAAUAUUACGCAUA | -2.26 ± 0.12 | -1.18 ± 0.12 |
| GAGCAGCAAUAUUACGAUGC | -1.47 ± 0.092 | -0.514 ± 0.11 |
| GGUAAGCAAUAUUACGGCUA | 0.109 ± 0.085 | -0.0128 ± 0.11 |
| UUGUAGCAAUAUUACGCAUG | -1.86 ± 0.13 | 0.0958 ± 0.14 |

| Sequence | self-splicing fitness (ln) (30 °C) | self-splicing fitness (ln) (37 °C) |
| --- | --- | --- |
| GACUAGCAAUAUUACGAUGU | -2.24 ± 0.15 | -1.53 ± 0.17 |
| CGUCAGCAAUAUUACGACUU | -0.191 ± 0.069 | 0.132 ± 0.08 |
| CCCCAGCAAUAUUACGAUGC | -3.46 ± 0.16 | -3.15 ± 0.29 |
| CCCAAGCAAUAUUACGAGAC | -3.64 ± 0.21 | -1.4 ± 0.17 |
| AAAUAGCAAUAUUACGGCGA | -0.48 ± 0.11 | -0.0146 ± 0.12 |
| CGGGAGCAAUAUUACGUUAU | -2.65 ± 0.26 | -3.21 ± 0.47 |
| AGUCAGCAAUAUUACGUCGG | -0.874 ± 0.086 | -1.23 ± 0.11 |
| UAAUAGCAAUAUUACGACUA | -0.456 ± 0.11 | -0.0379 ± 0.13 |
| CUGGAGCAAUAUUACGCGUA | – | -2.81 ± 0.43 |
| UGGAAGCAAUAUUACGUCAC | – | -1.54 ± 0.24 |
| GAGGAGCAAUAUUACGGUAC | – | -2.14 ± 0.26 |
| UCGGAGCAAUAUUACGGUCA | -0.984 ± 0.18 | – |
| GGUCAGCAAUAUUACGCAAU | -0.0569 ± 0.099 | 0.16 ± 0.12 |
| UUGCAGCAAUAUUACGGCAU | -2.44 ± 0.19 | -1.19 ± 0.1 |
| GUUAAGCAAUAUUACGGGGG | -3.44 ± 0.34 | -2.67 ± 0.27 |
| UCGGAGCAAUAUUACGGUGG | -3.35 ± 0.12 | -2.01 ± 0.16 |
| AAAAAGCAAUAUUACGGAGU | -2.15 ± 0.13 | -1.63 ± 0.13 |
| ACCUAGCAAUAUUACGACGA | -0.405 ± 0.11 | -0.784 ± 0.093 |
| GGUCAGCAAUAUUACGAUAU | 0.154 ± 0.071 | 0.391 ± 0.082 |
| CUGUAGCAAUAUUACGGUUG | -0.904 ± 0.081 | -0.833 ± 0.087 |
